From US20180088111A1 (published 2018)
Blank lines part the entries; values can stand above or below the molecule they belong to.

Key:
[1] = target: hPD1(25-167)-3S-IG (human) (UniProt Q15116); assay: SPR (Biacore T200), hPD1(25-167)-3S-IG on chip, MIH4 analyte, no PDL-1
[2] = target: hPD1(25-167)-Myc-TVMV-His (human) (UniProt Q15116); assay: SPR (Biacore T200), hPD1(25-167)-His on chip, MIH4 analyte, in the presence of PDL-1 ('2M' [sic])
[3] = target: hPD1(25-167)-Myc-TVMV-His (human) (UniProt Q15116); assay: SPR (Biacore T200), hPD1(25-167)-His coupled to CM5 chip, MIH4 0.195-50 nM as analyte
[4] = target: hPD1(25-167)-Myc-TVMV-His (human) (UniProt Q15116); assay: SPR (Biacore T200), hPD1(25-167)-His on chip, MIH4 analyte, no PDL-1
recombinant human PDL-1 = target: T1, recombinant human PDL-1 (human, UniProt Q9NZQ7 19-239); assay: SPR (ProteOn XPR36), hPD1(25-167)-His captured by His-tag on HTG chip, hPDL-1 0.125-2 µM as analyte, equilibrium analysis
T1 construct: Bought (R&D Systems); whole entry named; also called hPDL-1; soluble human PDL-1
T1 sequence (Q9NZQ7 19-239 limits assumed): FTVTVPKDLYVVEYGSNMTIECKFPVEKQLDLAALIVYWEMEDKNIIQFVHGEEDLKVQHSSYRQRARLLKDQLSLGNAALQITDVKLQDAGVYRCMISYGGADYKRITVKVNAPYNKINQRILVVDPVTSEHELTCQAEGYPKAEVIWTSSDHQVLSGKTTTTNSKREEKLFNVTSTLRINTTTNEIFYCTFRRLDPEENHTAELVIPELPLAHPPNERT
Description: The surface was activated by injecting nickel (II) ions at 30 μl/min for 120 s. All analyses were performed at 25° C. in a PBS-0.05% TWEEN® solution.
The surface was regenerated with 300 mM EDTA (pH 8.5) following BioRad's recommendations. The binding data were analyzed using the PROTEON MANAGER™ Software from Bio-Rad.
Soluble, human PDL-1 was injected into the mobile phase as an analyte.

Kd [1]: 0.5 nM | koff [1]: 0.00024 s⁻¹ | kon [1]: 480000 M⁻¹ s⁻¹ | Kd [2]: 2.9 nM | koff [2]: 0.00034 s⁻¹ | kon [2]: 120000 M⁻¹ s⁻¹ | response level (RU) [3]: 0.2 to 49 RU | Kd [4]: 2.8 nM | koff [4]: 0.00038 s⁻¹ | kon [4]: 130000 M⁻¹ s⁻¹
Molecule: MIH4 (antibody)

Kd (recombinant human PDL-1): 2800 nM
B1: hPD1(25-167)-Myc-TVMV-His (receptor)
chain: LDSPDRPWNPPTFSPALLVVTEGDNATFTCSFSNTSESFVLNWYRMSPSNQTDKLAAFPEDRSQPGQDCRFRVTQLPNGRDFHMSVVRARRNDSGTYLCGAISLAPKAQIKESLRAELRVTERRAEVPTAHPSPSPRPAGQFQEQKLISEEDLGSSETVRFQGHHHHHH
modifications: glycosylated (HEK293 expression)
notes: range 25-167; Expressed in HEK293-6E cells; glycosylated monomer in solution by SEC-MALS; also called hPD1(25-167)-His; hPD-1(25-167)-His
